The values that follow come from US20220048967A1 (published 2022).

What all share (experiment): cell-based or functional assay
The target of experiment [1] is human GLP-1 receptor (GLP-1R) (human, UniProt P43220 24-463).
Experiment [2] deals with T1, human gastric inhibitory peptide receptor (GIPR) (human, UniProt P48546 22-466).
T1 sequence (looked up): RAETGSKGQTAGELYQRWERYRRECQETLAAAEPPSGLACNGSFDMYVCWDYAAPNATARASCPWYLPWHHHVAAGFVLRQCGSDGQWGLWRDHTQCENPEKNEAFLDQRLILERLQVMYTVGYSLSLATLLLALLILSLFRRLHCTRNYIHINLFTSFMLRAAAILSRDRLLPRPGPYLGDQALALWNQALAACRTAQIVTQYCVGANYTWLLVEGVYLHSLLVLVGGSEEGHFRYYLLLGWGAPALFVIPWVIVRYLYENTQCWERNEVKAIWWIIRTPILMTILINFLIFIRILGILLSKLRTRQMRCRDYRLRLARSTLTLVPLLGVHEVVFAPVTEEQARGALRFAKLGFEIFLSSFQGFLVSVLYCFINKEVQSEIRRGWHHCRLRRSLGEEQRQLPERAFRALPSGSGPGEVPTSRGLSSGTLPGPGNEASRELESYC

For a further experiment, the target named is T2, human GIP receptor (human, UniProt P48546 22-466).
T2 sequence (looked up): T1 sequence (looked up)

The target of another experiment is human glucagon receptor (human, UniProt P47871 26-477).
Chain of human glucagon receptor (P47871 26-477): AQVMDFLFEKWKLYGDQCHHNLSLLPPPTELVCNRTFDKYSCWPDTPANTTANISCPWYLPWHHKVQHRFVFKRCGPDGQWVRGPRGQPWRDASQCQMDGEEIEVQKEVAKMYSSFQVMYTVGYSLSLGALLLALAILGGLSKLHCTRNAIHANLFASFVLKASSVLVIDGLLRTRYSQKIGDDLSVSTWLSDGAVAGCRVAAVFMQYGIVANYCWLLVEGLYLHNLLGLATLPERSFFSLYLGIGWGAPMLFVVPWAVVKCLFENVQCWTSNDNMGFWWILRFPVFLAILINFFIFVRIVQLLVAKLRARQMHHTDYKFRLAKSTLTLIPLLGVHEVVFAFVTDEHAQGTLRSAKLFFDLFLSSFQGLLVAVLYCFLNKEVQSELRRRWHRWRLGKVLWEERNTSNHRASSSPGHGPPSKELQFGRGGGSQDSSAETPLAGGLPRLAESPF
The target of the next experiment is human GLP-1 receptor (human, UniProt P43220 24-463).

Substitutions are numbered along the chain they refer to. Bounds are passed on as bounds.
Throughout, for hGIPR cAMP EC50 ratio: reference of the scale not given here.
Throughout, for hGLP1R cAMP EC50 ratio: reference of the scale not given here.

B1: Example 372 (peptide)
peptide: XXEGTFTSDYSIXLDKKAQXEFIEXLIAGGPSSGAPPPS
modifications: D-Tyr1; Aib2; αMeL13; K17 conjugated to (2-[2-(2-Amino-ethoxy)-ethoxy]-acetyl)-(γ-Glu)-CO-(CH2)18-CO2H; Aib20; αMeY25; C-terminal amide
In the case of B1, in experiment [1], the “hGLP1R cAMP EC50 ratio” value amounted to 0.0741 ratio and the “hGLP1R cAMP Rel EC50” value stood at 0.365 nM. For the same molecule, in experiment [2], the “hGIPR cAMP EC50 ratio” value is 0.68 ratio and the “hGIPR cAMP Rel EC50” value worked out at 0.0781 nM.

B2: Example 379 (peptide)
peptide: B1 peptide with A28E
modifications: D-Tyr1; Aib2; αMeL13; K17 conjugated to (2-[2-(2-Amino-ethoxy)-ethoxy]-acetyl)2-(γ-Glu)-CO-(CH2)18-CO2H; Aib20; αMeY25; C-terminal amide
On to B2, for which, in experiment [1], the “hGLP1R cAMP EC50 ratio” value stood at 0.114 ratio and the “hGLP1R cAMP Rel EC50” value turned out to be 0.238 nM. In experiment [2], the “hGIPR cAMP EC50 ratio” value was 0.672 ratio and the “hGIPR cAMP Rel EC50” value came out at 0.079 nM.

B3: Example 377 (peptide)
peptide: B1 peptide with K16X, E21A
modifications: D-Tyr1; Aib2; αMeL13; Orn16; K17 conjugated to (2-[2-(2-Amino-ethoxy)-ethoxy]-acetyl)2-(γ-Glu)-CO-(CH2)16-CO2H; Aib20; αMeY25; C-terminal amide
B3: in experiment [1], the “hGLP1R cAMP EC50 ratio” value came to 0.199 ratio and the “hGLP1R cAMP Rel EC50” value came to 0.136 nM. In addition, in experiment [2], the “hGIPR cAMP EC50 ratio” value was found to be 0.976 ratio and the “hGIPR cAMP Rel EC50” value was 0.0544 nM.

B4: Example 378 (peptide)
peptide: B1 peptide with X25Y
modifications: D-Tyr1; Aib2; αMeL13; K17 conjugated to (2-[2-(2-Amino-ethoxy)-ethoxy]-acetyl)-(γ-Glu)-CO-(CH2)18-CO2H; Aib20; C-terminal amide
Regarding B4, in experiment [1], the “hGLP1R cAMP EC50 ratio” value is 0.142 ratio and the “hGLP1R cAMP Rel EC50” value was 0.191 nM. Further, in experiment [2], the “hGIPR cAMP EC50 ratio” value is 0.793 ratio and the “hGIPR cAMP Rel EC50” value came to 0.067 nM.

B5: Example 376 (peptide)
peptide: B1 peptide with E21A
modifications: D-Tyr1; Aib2; αMeL13; K17 conjugated to (2-[2-(2-Amino-ethoxy)-ethoxy]-acetyl)2-(γ-Glu)-CO-(CH2)16-CO2H; Aib20; αMeY25; C-terminal amide
In the case of B5, in experiment [1], the “hGLP1R cAMP EC50 ratio” value is 0.159 ratio and the “hGLP1R cAMP Rel EC50” value is 0.17 nM. In experiment [2], the “hGIPR cAMP EC50 ratio” value worked out at 0.734 ratio and the “hGIPR cAMP Rel EC50” value was determined as 0.0723 nM.

B6: Example 373 (peptide)
peptide: B1 peptide with E21A
modifications: D-Tyr1; Aib2; αMeL13; K17 conjugated to (2-[2-(2-Amino-ethoxy)-ethoxy]-acetyl)-(γ-Glu)-CO-(CH2)18-CO2H; Aib20; αMeY25; C-terminal amide
For B6, in experiment [1], the “hGLP1R cAMP EC50 ratio” value was 0.0621 ratio and the “hGLP1R cAMP Rel EC50” value was 0.436 nM. Besides, in experiment [2], the “hGIPR cAMP EC50 ratio” value came to 0.287 ratio and the “hGIPR cAMP Rel EC50” value came to 0.185 nM.

B7: Example 374 (peptide)
peptide: B1 peptide
modifications: D-Tyr1; Aib2; αMeL13; K17 conjugated to (2-[2-(2-Amino-ethoxy)-ethoxy]-acetyl)2-(γ-Glu)-CO-(CH2)16-CO2H; Aib20; αMeY25; C-terminal amide
Take B7: in experiment [1], the “hGLP1R cAMP EC50 ratio” value stood at 0.169 ratio and the “hGLP1R cAMP Rel EC50” value was 0.19 nM. In experiment [2], the “hGIPR cAMP EC50 ratio” value came to 1.76 ratio and the “hGIPR cAMP Rel EC50” value came out at 0.0468 nM.

B8: Example 375 (peptide)
peptide: B1 peptide with K16X
modifications: D-Tyr1; Aib2; αMeL13; Orn16; K17 conjugated to (2-[2-(2-Amino-ethoxy)-ethoxy]-acetyl)2-(γ-Glu)-CO-(CH2)16-CO2H; Aib20; αMeY25; C-terminal amide
For the molecule B8, in experiment [1], the “hGLP1R cAMP EC50 ratio” value was 0.178 ratio and the “hGLP1R cAMP Rel EC50” value stood at 0.152 nM. For the same molecule, in experiment [2], the “hGIPR cAMP EC50 ratio” value stood at 1.13 ratio and the “hGIPR cAMP Rel EC50” value came to 0.0471 nM.

B9: Example 2 (peptide)
peptide: YXEGTXTSDYSIXLDXKAQXEFIXYLIEGGPSSGAPPPS
modifications: Aib2; αMeF(2F)6; αMeL13; Orn16; K17((2-[2-(2-Amino-ethoxy)-ethoxy]-acetyl)2-(γ-Glu)-CO-(CH2)16-CO2H); Aib20; D-Glu24; C-terminal amide
With B9, the “cAMP EC50” value with human GIP receptor is 2.64 nM; with human glucagon receptor, greater than 10900 nM; with human GLP-1 receptor it was 6.52 nM.

B10: Example 4 (peptide)
peptide: B9 peptide with Y10X, Y25X
modifications: Aib2; αMeF(2F)6; 4Pal10; αMeL13; Orn16; K17((2-[2-(2-Amino-ethoxy)-ethoxy]-acetyl)2-(γ-Glu)-CO-(CH2)16-CO2H); Aib20; D-Glu24; αMeY25; C-terminal amide
Regarding B10, the figures for the “cAMP EC50” value in the experiment with human GIP receptor, with human glucagon receptor and in the experiment with human GLP-1 receptor were 1.03 nM, greater than 10900 nM and 2.02 nM, respectively.

B11: Example 3 (peptide)
peptide: B9 peptide
modifications: Aib2; αMeF(2F)6; αMeL13; Orn16; K17((2-[2-(2-Amino-ethoxy)-ethoxy]-acetyl)2-(γ-Glu)-CO-(CH2)18-CO2H); Aib20; D-Glu24; C-terminal amide
As to B11, the “cAMP EC50” value with human GIP receptor is 9.24 nM; in the experiment with human glucagon receptor it was greater than 10900 nM; with human GLP-1 receptor it was 19.4 nM.

B12: Example 5 (peptide)
peptide: B9 peptide with Y10V, Y25X
modifications: Aib2; αMeF(2F)6; αMeL13; Orn16; K17((2-[2-(2-Amino-ethoxy)-ethoxy]-acetyl)2-(γ-Glu)-CO-(CH2)16-CO2H); Aib20; D-Glu24; αMeY25; C-terminal amide
For B12, the “cAMP EC50” value with human GIP receptor was 1.98 nM; with human glucagon receptor, greater than 10900 nM; in the experiment with human GLP-1 receptor, 1.61 nM.

B13: Example 380 (peptide)
peptide: B1 peptide with K16X, A28E
modifications: D-Tyr1; Aib2; αMeL13; Orn16; K17 conjugated to (2-[2-(2-Amino-ethoxy)-ethoxy]-acetyl)2-(γ-Glu)-CO-(CH2)18-CO2H; Aib20; αMeY25; C-terminal amide
Consider B13, for which, in experiment [1], the “hGLP1R cAMP EC50 ratio” value stood at 0.115 ratio and the “hGLP1R cAMP Rel EC50” value turned out to be 0.236 nM. Further, in experiment [2], the “hGIPR cAMP EC50 ratio” value stood at 0.374 ratio and the “hGIPR cAMP Rel EC50” value was 0.142 nM.

B14: Example 371 (peptide)
peptide: B1 peptide with K16X, X25Y
modifications: D-Tyr1; Aib2; αMeL13; Orn16; K17 conjugated to (2-[2-(2-Amino-ethoxy)-ethoxy]-acetyl)-(γ-Glu)-CO-(CH2)18-CO2H; Aib20; C-terminal amide
In the case of B14, in experiment [1], the “hGLP1R cAMP EC50 ratio” value is 0.206 ratio and the “hGLP1R cAMP Rel EC50” value turned out to be 0.132 nM. In addition, in experiment [2], the “hGIPR cAMP EC50 ratio” value is 0.393 ratio and the “hGIPR cAMP Rel EC50” value worked out at 0.135 nM.

B15: Example 1 (peptide)
peptide: B9 peptide with X16E
modifications: Aib2; αMeF(2F)6; αMeL13; K17((2-[2-(2-Amino-ethoxy)-ethoxy]-acetyl)2-(γ-Glu)-CO-(CH2)18-CO2H); Aib20; D-Glu24; C-terminal amide
In the case of B15, the “cAMP EC50” value with human GIP receptor is 38.5 nM; with human glucagon receptor it was greater than 11400 nM; with human GLP-1 receptor, 53.3 nM.
